Laboratory results taken from the supplement of paper PMC12636428.

System: Saccharomyces cerevisiae
Experiment: transcriptional activation domain activity (GFP:mCherry ratio, weighted mean of sorted bins, harmonized to initial dataset scale) (arbitrary fluorescence ratio units); higher = stronger transcriptional activation
Settings: beta-estradiol 1 µM; induction time 4 h
Procedure, shortened: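 Barcoded tiles were sequenced after cells were sorted into 8 bins by GFP:mCherry ratio. Before sorting, cultures had been diluted 1:5 into SC with 1 uM beta-estradiol and held for 4 hours at 30 °C. The tiles were fused to an estradiol-inducible synthetic transcription factor and integrated at URA3 in yeast diploids carrying a GFP reporter. Activation activity is the read-weighted mean of bin median fluorescence, averaged over barcodes and linearly mapped onto the initial dataset scale, and tiles under 50 reads were left out.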

Row | Sequence | transcriptional activation domain activity
1 | MYGNLTYTEWSRYLADMLSMQKLLFVSVEANCRERILLLRISGRCPQLCPLWA | 47200
2 | MYGYCLLFYLFLFSFISLFYFYFYFYILYFLLLILIFFYFTTVLVSFHFILFF | 43400
3 | MYHAKFLYLLLGFLVYFLSSQTSINVYYISLNPFLFLAHPTILLIPLFPFRYT | 39700
4 | MYHALHKSGLSDTYIIQDVGVPFDAVEAFYKWLHETLHIYPLWLCPIRVRRYT | 44700
5 | MYHIPWPQVLWVGYQLRPTQIMGIFCSHLSVVLLVLPTPYYFLFHVLFLLWAS | 48900
6 | MYHISCWFIFFHLLMSHIFIFIFIFLLLLFYKCIIFLFLYTYFFYFLVFSRLL | 25700
7 | MYHISIQLLSVFISPSTPLFPDFLQISISFHLYSFFLFAIVIFFYFICLFLFV | 61100
8 | MYHITVFSLPLNLYCARCFALTLTILMGKSFLMGFINVFNRICTLLVTTLFLI | 70100
9 | MYHIVIIIPLCLLLFGPFILATDSPFCIVRHPFFFFFLFYQSFIAFTFFFFFT | 62700
10 | MYHPPWVLVGKCGSKEVRDELARHQLIACSRDLSVHVLKVDLLRKSWLLGHWR | 58900
11 | MYHSIQLGPVVSLLSLALSFIFFFLSPFFFFPFLALSFAPLFVILIFFFISTC | 29000
12 | MYICIYLLLGFVVWGISLICLVVIVILYILDNSFCSPYTSCSTSFPFLISLFY | 40300
13 | MYICVRKVYVHFDMNLRVYWIVAIMVKCICGLVELCLITSPPYIMLVLSKLFL | 32100
14 | MYILDKIKGEKGKQEGGEREAERGRGGAGRGEQEQEGGAGAGRGSRSKKGEQG | 30700
15 | MYILFFFNIYYLYSILHLFCFRFFFISLFSFSFSLLSLLTYFLQYYIIIYLKI | 58200
16 | MYILILIFFLSFFLSFLNGSILYLGIVLLPCAYRRVYTVVCLVFTIQIVLRIK | 61400
17 | MYILTIIPFFKHMSFFSFFLSCFFMSLLIVLLLLLLLLFSLLLLLLFFFPRPL | 54400
18 | MYIPPQSSVFLDIDSWGLIPVTCHLWLVMRWMYEAVMLPYLSQDGRHIVKFRY | 40700
19 | MYIQYNILLTFPFLFLHFLFLFFFFFFFFLLFFFFLSRSPLTPSLAPPSPLLT | 65300
20 | MYISLFITYLYTYILELCFDFLTIFIIYFHFFSASCMLHSISPLLFICFSFFQ | 57700
21 | MYKSYIFFYLPLLFNCFIMSFFFLYEMPFFYLGRMLHFLLSLISGSWFFFYLF | 50900

Row | Sequence | transcriptional activation domain activity
22 | MYLAVHWFYISGCTHHIFMIFLFMSKFLCLLMLLLSSCVVLSSFRTIFVLSFS | 62700
23 | MYLEVRCQLLGCMAIWWDNWFRLDLLSLVSAYRILLLCMGEFLIWKFWFIRLF | 60000
24 | MYLFFFFFFFGWVLSLLLYVFFGLGIIGIGIVLFVFVLAFFFLFLGGIFFCGL | 43900
25 | MYLFFFFFLDWFFFVVIITIICILWIWAWDFWACLLGIGIGFACLFYSGWVLF | 47800
26 | MYLFFLFYILEFAVRSESGPICASNTKCIGRYCVYCKCTSLLSRVLRLLFICC | 64300
27 | MYLFVLYLFFFIIVIRLFMLLFCVYFSVIFCYLFTLVLLLLFIIFFKLIFILL | 62600
28 | MYLPKPGWLHVAGWLFILSLYLSIYIISYLISSYICNLCSFFCYLLLACILSF | 49600
29 | MYLQWASCPLLICVSCFYTSLIYFAIISMSSMILTLVCLDRSMCWYSGWIFSS | 46000
30 | MYLWVLLQKVGLLLLLLLLLLLLLLLLLLHWLLHLLLLLLLLLLLLYQVCLQW | 23400
31 | MYMIFINPLLLMIILYIKLLPLMFPLLINLLILLIFLLYIHLLSIVFLQKFYI | 60100
32 | MYMSTIRSGHLQPVPSSSKLILFIFLFLFSLISLFFLVGSFPPFFLSYLWILC | 31200
33 | MYNLNLFYFSFFLSLSLFLFFFPLPFFFRSVWFANLFFVLLFLYYVPFLSHSC | 58700
34 | MYNMLVCLAIEFLWQHLYFFLFLYLTLCCDTFQLILYTPLSMFLFFIFILLKK | 16500
35 | MYNNIHIPFFVLFLFFFFLSLFFFFFSLIFFFSFYCILTLCWYAFCLFFLKKN | 34700
36 | MYNTALITIYLLLLLRRIFFTWSYLAYSFNFIATRVFARITMLMLVELFRQHD | 67400
37 | MYNTVLAWYCFIFAHVYSFLHCCFYYWFFLAFWLFGLLTYLSFVVGGVFFMPR | 53300
38 | MYPFLFFLSFLLFSSLTFLFSLLSFEFKFFFTFSSSFFFFCLTLCFFCQSFFF | 36400
39 | MYQIEALYLILTYKSIPFYHFNYFSIELIIKPTYLFLYLFFSYLFLHWLNLFD | 35100
40 | MYRCYCGLLMVPWYPCAVVFHVCLCGVRWGCENGVIGVYVLGWWVLWFVVLFG | 32600
41 | MYRLQCGVIYSLYVMCFMLLQMLLCVCVVSESFFFFLFLALIVWSPVYIILRV | 41900
42 | MYRWISSIDAICVHLWGYMKNLACLLLTHIFYCLASMCLLLVDTLITGVGNIP | 61100

Row | Sequence | transcriptional activation domain activity
43 | MYSFRLISLMLLSAIALVAANPLMIRIWPLRGGSLTFNLLLLFRWLDFQFVSH | 59900
44 | MYSIGVLTWKHDIGFFEDLLWSWCRVCFERYYTNVSPCTKLLSMELLLNCLLG | 69100
45 | MYSRIFIGLSFFLISFFISIIFLFICKEHSFSPIGFFLTRFLLFHVFSLFFTF | 62800
46 | MYTHALDPHDAANGLYSCLPCFYIFISTDDVARKIVLVPCIPLLKYALHAIQL | 61900
47 | MYTYTITFLSFISTIPLHSFLLFEQAYEYLCILLSLTVCLQTQLLLNICLLPF | 73000
48 | MYVCVYIFGCYLFGFMIFVYFFPIYFFNSLFSCSYFFFLLIYSFILFIYSVAA | 44800
49 | MYVEIFFLSLVWRIIIVLSLTSKGVFFNITYLFFRFLFSLVLCIFFFLHFFSL | 43100
50 | MYVGGVFSVSLFESVCYFVIFFSSLDLLLLLLLLFFSFLFFSFLFFFFSLVPS | 44800
51 | MYVISGFVFLIGLLLFVMLFDTTHLCVLVLFSFLYHSGSLCRPCHTPVILLYF | 44000
52 | MYVLAISQTRAWTNLNLFRSCMVGLVNLCVILLKMLPIVVFCTLWYNVDLNIP | 73400
53 | MYVLARVRMFSSGSRLLRLDRVRGYMLWLILLVVYVYLALTCISFRPPFFYHS | 71600
54 | MYVWYSLSFLFPPTSPSLFLFLFYLFIYSLFYFFFYFSPYFFSFFLSSYTLHY | 63000
55 | MYWNYPGFIWPLGFPWFFFFFFFRSGSLLPRPCPVDTVFHFQFFFFFFFFFFF | 51300
56 | MYYCLFFFFVSFCISLCFFYYYSQLCFFSTSFFAVSRGFFFISLSFLVCVWTI | 57300
57 | MYYCLFSFLFFLFAFPCVFLLLFTVFFSPYFFFAGFFFYLSLSLLVCVWTIDE | 41600
58 | MYYDKRSAMLQGLLLMGPRACGFHWSCILAILGLATLVSVDLVQLSYHLPRAV | 32700
59 | MYYIIISYDYFLIILIPIIDTCYPFKDFCIIFFIYPLLLHYAIFYYLRLVFIY | 45100
60 | MYYILMFLIYTCQLLLLLINLHWLAVACDTFPSWPLMQTNFYFCLLLLVTLFR | 31900
61 | MYYIVIYAFLYGIKYTHWIYFLSNNLVFWFLLLHFRHSHYGSLSYRYIIDHLL | 62500
62 | MYYLLLPLAYSLSHSVFFFFSVFLLRVLQYHGWWPFLLSSLCVFFLACVFVKG | 27100
63 | MYYLYLSFCFLIVFFFFFFPLYCCCRLLFFSSSFVLFLSVLIILIPTFHAFFP | 67800

Row | Sequence | transcriptional activation domain activity
64 | NADGMDGEKFYKSIDSAYGFANSSLVHLLLHDQKLLMRLRYLRRLFFGAESDW | 48800
65 | NAEYICHYKGGLIGKHFKSLAQVMPFLIQDLLLRTVLDGWTCIGELVVYVWHM | 65800
66 | NAFGAYSTDPSNIAEGLNTVGFRSGFAFFFVSMGIMCLIYLVCSLRTNVCFFM | 26100
67 | NAIISNLMLGMLLFCGSLYLLITFLPILSSDCPYSTPMSVPWWRILRALGAVG | 37900
68 | NANADAAAGNANADAGMANAGNNAAAGNANQAKGKGKKKNKAKGKAAGAGAGA | 29500
69 | NANADSNIAGNPKNNDATIDNELTQILNEYNMNFNDNLGTSTSGKNKSACPSS | 54200
70 | NANNANTNANANNNAATTNANANGNGKKGKNNNNNANANANANANAAAAAAAG | 18400
71 | NANVKLCVDGKWDKMCLMCTGDGTSSGVWRLCERILGSARCVIESIGCWVVLC | 60600
72 | NAPTADTDIATNLGKERNENFGMLNYNYEALLHFNDEHFNELNSIDPALISKY | 107000
73 | NASPAAVVATTATATPERAVSAAAGDNNASTLTKRGRGRPRKAAKHTQAQTQA | 36500
74 | NASVTREVPQFDTSANQMLSDIWSWIYYSEEFLAIPPSMVEGYDFSWQGLLGI | 120000
75 | NAVIKDFACVNECLARCSHVITTRRIIYILQLRVHCVAYSLPILNLPLFFFSR | 55300
76 | NAVNKSRGMVKGSGRKLHQQKGTGRARMRDAQNPIRRGGGRAFAKTTARNWLV | 29500
77 | NCLKLGCDCLGMIHYFDGFICSHKGLPIKLENVICMHEQDNGLMWKHTHFRTN | 40800
78 | NCLLHIMRFLPFLELKQFIIAYRRFDIYACAESAIHLQYLDFFNFWMDPSFLL | 49700
79 | NCMLRTIHLIWESNLSCTCIVNMLVLPCLHTLSITQCLYERKDKDPNPVILEA | 59000
80 | NCSFIFLMLNCILAAFCFYNLSSIMNGLVYFDQFSLIPPLHLGLVTLGMCVLL | 46400
81 | NCTNLPSVVVVGGSVPIDSQGLQIWSLLIYSIVLVPGLNLVVSSLIFLGIFWL | 30000
82 | NCVGHFTYGHFLRFLFYVDVACAYHLSMITWRVFHAMHASYWASPFTEMIFII | 65500
83 | NCVNLSFQLLFGELVVFLISLYMSVLYGLLYMFFVAQLPPEVRLIPMMCSCWF | 59700
